The values that follow come from patent US20180222961A1 (IMMATICS BIOTECHNOLOGIES, published 2018).

Sequences and labels used below:
B1: REGDTVQLL (peptide)
peptide: REGDTVQLL
B2: IEHSTQAQDTL (peptide)
peptide: IEHSTQAQDTL
B3: NEIWTHSY (peptide)
peptide: NEIWTHSY
B4: AEHEGVSVL (peptide)
peptide: AEHEGVSVL
B5: TEVSRTEL (peptide)
peptide: TEVSRTEL
B6: REAGDEFEL (peptide)
peptide: REAGDEFEL
B7: AEFLLRIFL (peptide)
peptide: AEFLLRIFL
B8: QEAARAAL (peptide)
peptide: QEAARAAL
B9: KESIPRWYY (peptide)
peptide: KESIPRWYY
B10: GEMEQKQL (peptide)
peptide: GEMEQKQL
B11: SEDGLPEGIHL (peptide)
peptide: SEDGLPEGIHL
B12: EDGRLVIEF (peptide)
peptide: EDGRLVIEF
B13: AEIEPKADG (peptide)
peptide: AEIEPKADG
B14: YEKGIMQKV (peptide)
peptide: YEKGIMQKV
B15: REAGDEFELRY (peptide)
peptide: REAGDEFELRY
B16: KEVDPTSHSY (peptide)
peptide: KEVDPTSHSY
B17: LEKALQVF (peptide)
peptide: LEKALQVF
B18: SEITRIEM (peptide)
peptide: SEITRIEM
B19: SFEQVVNELF (peptide)
peptide: SFEQVVNELF
B20: TEVSRTEAI (peptide)
peptide: TEVSRTEAI
B21: AEATARLNVF (peptide)
peptide: AEATARLNVF
B22: KEFLFNMY (peptide)
peptide: KEFLFNMY
B23: MEHPGKLLF (peptide)
peptide: MEHPGKLLF
B24: VEQTRAGSLL (peptide)
peptide: VEQTRAGSLL
B25: GEIEIHLL (peptide)
peptide: GEIEIHLL
B26: NEAIMHQY (peptide)
peptide: NEAIMHQY
B27: EEAQWVRKY (peptide)
peptide: EEAQWVRKY
B28: GEGPKTSW (peptide)
peptide: GEGPKTSW
B29: LEAQQEAL (peptide)
peptide: LEAQQEAL
B30: REGPEEPGL (peptide)
peptide: REGPEEPGL
B31: AERQPGAASL (peptide)
peptide: AERQPGAASL
B32: RELANDELIL (peptide)
peptide: RELANDELIL
B33: YEVARILNL (peptide)
peptide: YEVARILNL
B34: AEDKRHYSV (peptide)
peptide: AEDKRHYSV
B35: SMYYPLQLK (peptide)
peptide: SMYYPLQLK
B36: VVHAVFALK (peptide)
peptide: VVHAVFALK
B37: AVAPPTPASK (peptide)
peptide: AVAPPTPASK
B38: KLQPAQTAAK (peptide)
peptide: KLQPAQTAAK
B39: RMASPVNVK (peptide)
peptide: RMASPVNVK
B40: RAKELEATF (peptide)
peptide: RAKELEATF
B41: KTYETNLEIKK (peptide)
peptide: KTYETNLEIKK
B42: IVQEPTEEK (peptide)
peptide: IVQEPTEEK
B43: LLQPPPLLAR (peptide)
peptide: LLQPPPLLAR
B44: KVAGERYVYK (peptide)
peptide: KVAGERYVYK
B45: AVRKPIVLK (peptide)
peptide: AVRKPIVLK
B46: KVVDRWNEK (peptide)
peptide: KVVDRWNEK
B47: VLLGSLFSRK (peptide)
peptide: VLLGSLFSRK
B48: GTVNPTVGK (peptide)
peptide: GTVNPTVGK
B49: KSLIKSWKK (peptide)
peptide: KSLIKSWKK
B50: TVAPPQGVVK (peptide)
peptide: TVAPPQGVVK
B51: SVSGVKTTF (peptide)
peptide: SVSGVKTTF
B52: VLYGPAGLGK (peptide)
peptide: VLYGPAGLGK
B53: VVLLGSLFSRK (peptide)
peptide: VVLLGSLFSRK
B54: ALEVAHRLK (peptide)
peptide: ALEVAHRLK
B55: KILEEHTNK (peptide)
peptide: KILEEHTNK
B56: SVSSETTKIKR (peptide)
peptide: SVSSETTKIKR
B57: RVAELLLLH (peptide)
peptide: RVAELLLLH
B58: ATFERVLLR (peptide)
peptide: ATFERVLLR
B59: RSLRYYYEK (peptide)
peptide: RSLRYYYEK
B60: GMMKGGIRK (peptide)
peptide: GMMKGGIRK
B61: RRIHTGEKPYK (peptide)
peptide: RRIHTGEKPYK
B62: GTSPPSVEK (peptide)
peptide: GTSPPSVEK
B63: NLSSITHER (peptide)
peptide: NLSSITHER
B64: RISEYLLEK (peptide)
peptide: RISEYLLEK
B65: SLKERNPLK (peptide)
peptide: SLKERNPLK
B66: QSMYYPLQLK (peptide)
peptide: QSMYYPLQLK

In the first assay the target is T1, HLA-B*44:02 (human).
T1 construct: also called peptide-receptive MHC molecules
Description: UV-exchange b2m ELISA; exchange-yield grade. Summed up: (§1)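 Binding capacity is graded by how much β2m-containing, stabilised complex survives UV-induced loss of the placeholder peptide. An anti-β2m sandwich ELISA on streptavidin capture, calibrated with refolded monomers (15-500 ng/ml), measures this.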
In general terms: ELISA stands for enzyme-linked immunosorbent assay.
With B1, the peptide exchange yield was in the range of 20 to 50%. Regarding B2, the peptide exchange yield lay in the range of 20 to 50%. The molecule B3 returned a peptide exchange yield of 10 to 20%.

Consider B4, for which the peptide exchange yield was in the range of 20 to 50%. As to B5, the peptide exchange yield is 20 to 50%.

B6 displayed a peptide exchange yield of 20 to 50%. B7 displayed a peptide exchange yield of 20 to 50%. Turning to B8, the peptide exchange yield lay within 20 to 50%. Regarding B9, the peptide exchange yield fell in the range of 20 to 50%.

B10 had a peptide exchange yield of 20 to 50%.

Molecule B11 displayed a peptide exchange yield of 20 to 50%. The molecule B12 registered a peptide exchange yield of 10 to 20%. For B13, the peptide exchange yield lay in the range of 20 to 50%.

Molecule B14 returned a peptide exchange yield of 20 to 50%.

With B15, the peptide exchange yield lay in the range of 20 to 50%.

The molecule B16 returned a peptide exchange yield of 20 to 50%. In turn, B17 came in with a peptide exchange yield of 20 to 50%. On to B18, for which the peptide exchange yield fell in the range of 20 to 50%. On the same count and under the same terms, with B19 the figure was 20 to 50%.

As for B20, the peptide exchange yield fell in the range of 20 to 50%. As to B21, the binding result is reported as “binds”. B22 showed a peptide exchange yield of 20 to 50%. For the molecule B23, the binding result is recorded as “binds”. B24 yielded a peptide exchange yield of 20 to 50%.

As for B25, the peptide exchange yield is 10 to 20%. B26: the peptide exchange yield fell in the range of 20 to 50%. On the same count and under the same terms, then B27, with 20 to 50%; and B28, with 20 to 50%. B29 gave a peptide exchange yield of 20 to 50%. B30: the peptide exchange yield fell in the range of 20 to 50%.

Turning to B31, the peptide exchange yield lay in the range of 20 to 50%.

The molecule B32 returned a peptide exchange yield of 20 to 50%. The same measure, in the same setting: with B33 the figure was 20 to 50%; with B34, 20 to 50%.

The next assay concerns the target T2, HLA-A*03:01 (human).
T2 construct: also called peptide-receptive MHC molecules
Description: UV-exchange b2m ELISA; exchange-yield grade. Summed up: as §1
Molecule B35 returned a peptide exchange yield of 50 to 75%. Turning to B36, the peptide exchange yield lay in the range of 50 to 75%. With B37, the peptide exchange yield was in the range of 20 to 50%. For the molecule B38, the peptide exchange yield fell in the range of 20 to 50%. B39: the peptide exchange yield was more than 75%. Regarding B40, the peptide exchange yield lay within 10 to 20%. As for B41, the peptide exchange yield was 50 to 75%. In turn, B42 had a peptide exchange yield of 20 to 50%. B43 had a peptide exchange yield of 20 to 50%. Regarding B44, the peptide exchange yield fell in the range of 50 to 75%. B45 showed a peptide exchange yield of 50 to 75%. Molecule B46 displayed a peptide exchange yield of 20 to 50%. The molecule B47 showed a peptide exchange yield of 20 to 50%.

In the case of B48, the peptide exchange yield is 20 to 50%. On to B49, for which the peptide exchange yield lay within 20 to 50%. With B50, the peptide exchange yield was in the range of 20 to 50%.

The molecule B51 yielded a peptide exchange yield of 20 to 50%. In turn, B52 came in with a peptide exchange yield of 50 to 75%. Molecule B53 displayed a peptide exchange yield of 20 to 50%. B54: the peptide exchange yield was in the range of 20 to 50%.

Molecule B55 came in with a peptide exchange yield of 20 to 50%.

In turn, B56 gave a peptide exchange yield of 20 to 50%.

In turn, B57 displayed a peptide exchange yield of 20 to 50%. In turn, B58 had a peptide exchange yield of 50 to 75%. Still for that read-out and setting: then B59, with 20 to 50%; and B60, with 50 to 75%; and B61, with 20 to 50%.

Molecule B62 showed a peptide exchange yield of 20 to 50%. In the case of B63, the peptide exchange yield lay within 20 to 50%.

In turn, B64 returned a peptide exchange yield of 20 to 50%. For the molecule B65, the peptide exchange yield fell in the range of 20 to 50%.

In the case of B66, the peptide exchange yield is 20 to 50%.
